Earlier results, collected in patent US10543287.

Columns and labels:
[1] = test system: rag2 ZFN pair (FokI) (synthetic construct); assay: cell_activity; settings: CITED ref 58 somatic mutation rate in zebrafish embryos, mutant lines obtained here (Table 1), half-sites only highlighted in figure
[2] = test system: jak3 ZFN pair (FokI) (synthetic construct); assay: cell_activity; settings: CITED ref 58 somatic mutation rate in zebrafish embryos, mutant lines obtained here (Table 1), half-sites only highlighted in figure

Sequence | activity [1] | activity [2]
CCATGATCTTCTGCTCCAGGGGTGAAGGTGGACACTG (double strand) [rag2 ZFN target] | 7.7% | 
TATTTCTGCGCAGAAGTGGCCCCACCAAGCCTGCTGGAGGACATACAGAATTA (double strand) [jak3 ZFN target] |  | 1.4%
